In patent US7361341B2, “Methods of treating cancer using antibodies that immunospecifically bind to trail receptors” (Human Genome Sciences, Inc., priority 2001, dated 2008) one finds caspase activity and cell viability data, which are given here for one substance.

Data set [1] relates to human primary hepatocytes. Nature of the data set: Caspase activation in human primary hepatocytes. It counts as cell-based. Particulars: 6 hrs following treatment; T1014G03 62.5-1000 ng/ml, TRAIL 15.6-1000 ng/mL. As for the experimental part: (§1) The effect of T1014G03 (lot AB22125-M2) in human primary hepatocytes was determined by measuring either caspase activation or cell viability. Human hepatocytes were treated with 15.6, 62.5, 250 or 1000 ng/mL of TRAIL (amino acid residues 114-281, Biomol Research Laboratories Inc, Plymouth Meeting, Pa.), 62.5, 125, 250, or 1000 ng/ml of isotype control mAb (hlgG1,CAT002) or 62.5, 125, 250, or 1000 ng/ml T1014G03. Caspase activation was determined at 6 hrs following treatment, while viability was determined at 24 hrs following treatment.
(§2) Caspase activity was measured using a fluorimetric assay utilizing the caspase substrate Rhodamine conjugated DEVD, (e.g., Homogeneous Fluorimetric Caspases Assay available from Roche Molecular Biochemicals (Indianapolis, Ind.)). Cell viability was determined using an ALAMAR Blue™ (Biosource International, Camarillo, Calif.) assay. […] In contrast to TRAIL, T1014G03 treatment was found not to effect either caspase or cell viability in human hepatocytes.

The test system of data set [2] is human primary hepatocytes. Description: Cell viability of human primary hepatocytes (ALAMAR Blue). It counts as cell-based. Particulars: 24 hrs following treatment; T1014G03 62.5-1000 ng/ml, TRAIL 15.6-1000 ng/mL. As to the method: as §1, §2
Background: Alamar Blue is a resazurin reagent that responds to reducing activity.

For “TRAIL: TRAIL (amino acid residues 114-281, Biomol Research Laboratories Inc)”, the caspase activity entry in data set [1] is listed as “induced caspase activity at the highest concentration tested”. For the same substance, the cell viability result in data set [2] is “reduced cell viability at all concentrations tested”.
